The assay concerns the target csk21_arath CKA1 (UniProt Q08467).

Chain of csk21_arath CKA1 (Q08467 whole entry): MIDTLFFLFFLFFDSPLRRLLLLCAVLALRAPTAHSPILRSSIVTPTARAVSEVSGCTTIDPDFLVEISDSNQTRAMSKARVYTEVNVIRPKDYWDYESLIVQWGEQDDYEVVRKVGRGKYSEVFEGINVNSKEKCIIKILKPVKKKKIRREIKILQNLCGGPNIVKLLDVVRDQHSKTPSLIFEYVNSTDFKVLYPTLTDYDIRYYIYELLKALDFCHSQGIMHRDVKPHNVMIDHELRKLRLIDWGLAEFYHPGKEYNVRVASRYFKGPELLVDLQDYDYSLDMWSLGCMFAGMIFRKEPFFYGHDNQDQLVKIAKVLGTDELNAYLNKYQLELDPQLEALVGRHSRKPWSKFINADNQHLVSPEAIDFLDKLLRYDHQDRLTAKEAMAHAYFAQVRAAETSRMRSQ
Chain of Protein CCA1 (Arabidopsis thaliana (Mouse-ear cress)), P92973 S5A (P92973 whole entry S5A): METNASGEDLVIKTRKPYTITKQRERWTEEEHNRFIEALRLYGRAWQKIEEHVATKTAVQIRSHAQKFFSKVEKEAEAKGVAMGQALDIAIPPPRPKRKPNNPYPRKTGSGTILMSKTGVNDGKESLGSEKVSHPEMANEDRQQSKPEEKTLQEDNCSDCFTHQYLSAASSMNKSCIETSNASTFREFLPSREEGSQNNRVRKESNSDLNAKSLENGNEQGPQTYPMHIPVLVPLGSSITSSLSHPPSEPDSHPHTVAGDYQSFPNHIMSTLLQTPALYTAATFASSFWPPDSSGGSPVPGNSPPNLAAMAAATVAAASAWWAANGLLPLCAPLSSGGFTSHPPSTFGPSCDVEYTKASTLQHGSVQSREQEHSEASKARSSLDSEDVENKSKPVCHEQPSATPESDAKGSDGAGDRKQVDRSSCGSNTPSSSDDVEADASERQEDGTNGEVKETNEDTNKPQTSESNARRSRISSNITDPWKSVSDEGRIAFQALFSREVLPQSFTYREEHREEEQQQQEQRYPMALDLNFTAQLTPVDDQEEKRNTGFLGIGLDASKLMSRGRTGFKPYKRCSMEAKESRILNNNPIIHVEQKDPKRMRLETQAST
Chain of Protein CCA1 (Arabidopsis thaliana (Mouse-ear cress)), P92973 S6A (P92973 whole entry S6A): as the sequence (P92973 whole entry S5A) above, with A5S, S6A counted along it

As to “Protein CCA1 (Arabidopsis thaliana (Mouse-ear cress)), P92973 S5A”, the “effect of a mutation on the interaction” value is “decreasing interaction”.
Under “Protein CCA1 (Arabidopsis thaliana (Mouse-ear cress)), P92973 S433A” stands “decreasing interaction”; under “Protein CCA1 (Arabidopsis thaliana (Mouse-ear cress)), P92973 S432A”, “decreasing interaction”.
As to “Protein CCA1 (Arabidopsis thaliana (Mouse-ear cress)), P92973 S431A”, the “effect of a mutation on the interaction” value was “decreasing interaction”.
Consider “Protein CCA1 (Arabidopsis thaliana (Mouse-ear cress)), P92973 S6A”, for which the “effect of a mutation on the interaction” value is given as “decreasing interaction”.
“Protein CCA1 (Arabidopsis thaliana (Mouse-ear cress)), P92973 S484A”: the “effect of a mutation on the interaction” value is given as “decreasing interaction”.

Values taken from IntAct's records for PubMed 14978263.
